In patent publication US10927178B2, “Anti-CXCR4 antibodies and antibody-drug conjugates” (PFIZER INC., priority 2013, dated 2021):
Changes are numbered by the printed parent chain. Numbers in names are those of the source.

B1: h3G10.1.91.A58B: humanized anti-CXCR4 antibody; VH h3G10.1.91 SEQ ID NO:33, VL h3G10.A58B SEQ ID NO:73 (antibody, V domains shown)
VH: EVQLVESGGGLVQPGGSLRLSCAASGFTFSDYYMSWVRQAPGKGLEWVGFIRHKANFETTEYSTSVKGRFTISRDDSKNSLYLQMNSLKTEDTAVYYCARDLPGFAYWGQGTLVTVSS
VL: DIVMTQSPDSLAVSLGERATINCKSSQSLFNSHTRKNYLAWYQQKPGQPPKLLIYWASARGSGVPDRFSGSGSGTDFTLTISSLQAEDVAVYYCKQSFNLRTFGGGTKVEIK
B2: h3G10.A57 VH/h3G10.A11 VL: Fab; VH SEQ ID NO:23, VL A11 (probably A11A, SEQ ID NO:51) (antibody, V domains shown)
VH: B1 VH with E58Y
VL: B1 VL with S26A, H33R, G61E, N99R
modifications: Fab
B3: h3G10.B44 VH/h3G10.A11 VL: Fab; VH SEQ ID NO:25, VL A11 (probably A11A, SEQ ID NO:51) (antibody, V domains shown)
VH: B1 VH with G49S, E58Y, D76N, S80T, K89R, T90A, R100K
VL: B1 VL with S26A, H33R, G61E, N99R
modifications: Fab
B4: h3G10.A57 VH/h3G10.B12 VL: Fab; VH SEQ ID NO:23, VL B12 (probably B12A, SEQ ID NO:61) (antibody, V domains shown)
VH: B1 VH with E58Y
VL: B1 VL with H33R, A40L, G61E, N99R
modifications: Fab
B5: h3G10.B44 VH/h3G10.2.72 VL: Fab; VH SEQ ID NO:25, VL SEQ ID NO:49 (antibody, V domains shown)
VH: B1 VH with G49S, E58Y, D76N, S80T, K89R, T90A, R100K
VL: B1 VL with H33R, G61E, N99R
modifications: Fab
B6: h3G10.B44 VH/h3G10.B12 VL: Fab; VH SEQ ID NO:25, VL B12 (probably B12A, SEQ ID NO:61) (antibody, V domains shown)
VH: B1 VH with G49S, E58Y, D76N, S80T, K89R, T90A, R100K
VL: B1 VL with H33R, A40L, G61E, N99R

Key:
[1] = system: OPM-2-Luc MM cells; assay: Systemic OPM-2-Luc multiple myeloma model; type: in vivo, mouse
Experimental: Humanized anti-CXCR4 antibody h3G10.1.91.A58B was tested for its ability to increase survival and reduce tumor burden of NSG mice using a disseminated/systemic intravenous model of MM. The human MM cancer line OPM-2 was transduced with the luciferase gene (OPM-2-LUC) to allow for “in life” monitoring of tumor burden over time. Cells were cultured at 37° C. in a 5% CO2 incubator in RPMI 1640 media containing 10% fetal bovine serum with 0.5 μg/mL puromycin for luciferase expression selection. 4-6 week old NSG female mice were injected intravenously with OPM-2-Luc cells (5×10^6/animal).
On Day 8 post-cell implantation mice were randomized into three treatment groups (10 animals per group) based on total body bioluminescence intensity. Weekly subcutaneous (s.c.) antibody treatment at 10 mg/kg in a solution of sterile PBS was initiated and carried out for 5 weeks. Melphalan, one of the approved drugs for treatment of multiple myeloma patients, was dosed at 1 mg/kg, twice/week carried out for 3 weeks. Tumor burden was assessed using Xenogen IVIS 200 imaging system. Mice were imaged every 7 days in a ventral position and whole body bioluminescence was determined using Xenogen Living Image software. When mice began to show hind limb paralysis or reached other humane endpoints they were euthanized. Both tumor burden (by bioluminescence) and survival were evaluated as endpoints.

[2] = system: Ramos cells; assay: Cell-death induction in Ramos cells (Annexin V/PI); type: cell-based, human; conditions: positive control, 24 hrs, untreated cells approximately 30%
Experimental: Anti-CXCR4 antibodies were examined for the ability to induce cell-death in the human Non-Hodgkin's Lymphoma Ramos cell line. Cells were cultured to sub-confluency in RPMI 1640 media containing 10% fetal bovine serum and […] Glutamine at 37° C. in a CO2 incubator. Cells were seeded in growth media in a 48-well plates at 2.5×10^6 cells/mL. Anti-CXCR4 antibodies, diluted in PBS to concentrations indicated, were added to the cells and incubated for 24 hrs at 37° C. Cell-death was measured by Annexin V-PE and propidium iodide (PI) fluorescent signal measured in a LSRII Flow Cytometer (BD Biosciences). Total cell-death was determined by adding the Annexin V+/PI+(late) population with the Annexin V+/PI-(early) population.
The Fab is a single chain antibody (monovalent) and contains the immunoglobulin variable regions which are part of the antigen-binding site and the first immunoglogulin constant region. This fragment was obtained by digestion of the 3G10 antibody with the proteolytic enzyme papain. The F(ab′)2 was generated by pepsin digestion to remove most of the Fc region while leaving intact some of the hinge region. F(ab′)2 fragments have two antigen-binding Fab portions linked together by disulfide bonds, and therefore are bivalent.

[3] = system: JVM-13-Luc cells; assay: Systemic JVM-13-Luc CLL model; type: in vivo, mouse; conditions: 10 mg/kg s.c. once a week
Experimental: Anti-tumor activity of CXCR4 antibody was further investigated in a disseminated intravenous Chronic Lymphocytic Leukemia (CLL) model. The human JVM-13 tumor cell line stably transfected to express the luciferase gene was cultured at 37° C. in a 5% CO2 incubator in RPMI 1640 media containing 10% fetal bovine serum and […] Puromycin. The model was established by injecting 1×10^6 JVM-13-Luc cells into female 6-8 week old SCID Beige mice via tail vein. 21 days post-cell implantation mice were assigned into treatment groups (10 animals per group) based on bioluminescence (BLI) reading. […] Rituximab, an anti-CD20 Ab, approved for treatment of CLL patients, was used as positive control. Rituximab was dosed at 10 mg/kg in a solution of sterile PBS once a week, s.c. Tumor burden was assessed using Xenogen IVIS 200 imaging system. Mice were imaged every 7 days in a ventral position and whole body bioluminescence was determined using Xenogen Living Image software. When mice began to show hind limb paralysis or reached other humane endpoints they were euthanized. Both tumor burden (by bioluminescence) and survival were evaluated as endpoints.

[4] = molecular target: T1, CXCR4 (CXCR4-expressing HPB-ALL cells) (Homo sapiens, UniProt P61073); assay: Flow cytometry binding of humanized 3G10 Fabs to HPB-ALL cells (Example 2); conditions: for MFI 0.25 μg/ml: Fab 0.25 μg/ml; for MFI 2.5 μg/ml: Fab 2.5 μg/ml
T1 construct: endogenous in cells; host or cells: HPB-ALL (human T cell leukemia)
T1 sequence (P61073 whole entry): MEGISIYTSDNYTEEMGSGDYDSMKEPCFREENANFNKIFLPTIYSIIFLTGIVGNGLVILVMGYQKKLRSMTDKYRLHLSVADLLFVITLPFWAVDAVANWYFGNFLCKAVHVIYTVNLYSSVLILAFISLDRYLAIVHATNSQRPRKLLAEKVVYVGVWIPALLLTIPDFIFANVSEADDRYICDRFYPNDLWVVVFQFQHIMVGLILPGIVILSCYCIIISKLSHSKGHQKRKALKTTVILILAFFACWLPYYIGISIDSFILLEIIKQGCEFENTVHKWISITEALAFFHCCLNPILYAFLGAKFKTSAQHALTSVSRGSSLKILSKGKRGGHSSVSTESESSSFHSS
Experimental: 150,000 cells were incubated with various h3G10 Fabs at either 2.5 or 0.25 μg/mL in 100 uL binding buffer (PBS+0.5% BSA), followed by incubation with APC-conjugated goat anti-human Fab-specific secondary antibody from R&D systems.

[5] = NSG mice, OPM-2-Luc i.v., antibody 10 mg/kg s.c. weekly for 5 weeks, Melphalan 1 mg/kg twice/week for 3 weeks
[6] = antibody 10 mg/kg s.c. weekly 5 weeks, Melphalan 1 mg/kg twice/week 3 weeks, isotype control 33.5 days

Molecule | MFI 0.25 μg/ml [4] | MFI 2.5 μg/ml [4] | other results
N[C@@H](Cc1ccc(N(CCCl)CCCl)cc1)C(=O)O [Melphalan, reference compound] | – | – | median survival [1, 5]: 36 days; median survival [1, 6]: 36 days
CN[C@@H]1C[C@H]2O[C@@](C)([C@@H]1OC)n1c3ccccc3c3c4c(c5c6ccccc6n2c5c31)C(=O)NC4 [Staurosporin, reference compound] | – | – | cell-death [2]: approximately 60%
Rituximab: anti-CD20 Ab, approved for treatment of CLL patients, used as positive control [reference compound] | – | – | tumor burden (luminescence) compared to isotype control antibody ([3]; from 21 days post-implantation): significantly reduced tumor burden; median survival ([3]; isotype control 32.5 days): 45 days; survival compared to isotype control Ab ([3]; p<0.0001): Significant increase in survival
B1 | – | – | tumor growth (bioluminescence) compared to isotype control antibody ([1]; 10 mg/kg s.c. weekly for 5 weeks, p<0.0001 on Day 30): significantly inhibited tumor growth; median survival [1, 5]: Undefined; median survival [1, 6]: undefined
B2 | 1251 | 4521 | –
B3 | 3792 | 8306 | –
B4 | 2921 | 6830 | –
B5 | 4513 | 8908 | –
B6 | 2094 | 8127 | –
